In article PMC4456219:

B1: Vps24-2^92C (I92C single cysteine mutant of Vps24-2) (protein)
chain: MDYIKKAIWGPDPKEQQRRIRSVLRKNGRNIEKSLRELTVLQNKTQQLIKKSAKKNDVRTVRLYAKELYQINKQYDRMYTSRAQLDSVRMKCDEAIRMNTLSNQMADSAGLMREVNSLVRLPQLRNTMIELEKELMKSGIISEMVDDTMESVGDVGEEMDEAVDEEVNKIVEQYTNEKFSQLQSTPQNLVSNAPIAETAMGIPEPIGAGSEFHGNPDDDLQARLNTLKKQT
modifications: Cys92 activated as a mixed disulfide with DTNB

Columns and labels:
[1] = target: MBP-Vps24-2-ssrA (Saccharomyces cerevisiae) (UniProt P36095)
[2] = target: mixed Vps4 hexamer of full-length Vps4^CF and Vps4^(CF 206C ΔMIT) (Saccharomyces cerevisiae) (UniProt P52917); assay: cross-linking

Molecule	HDX-MS: unfolded proportion of the MBP peptide 347-360 at 10, 30 and 60 s [1]	cross-linking efficiency relative to Vps24-2^136C [2]
ClpX (from UniProt P0A6H1 1-424) (enzyme)	30%	–
B1	–	60%
